Results published in patent US10081667B2, “Composition and method for therapeutic agent delivery during pregnancy” (University of Mississippi Medical Center, priority 2013, dated 2018).
Like-named read-outs stand apart in the source and are kept apart here. Where no end group is shown, it is not given here.

Columns and labels:
[1] = Pharmacokinetics and biodistribution of SynB1-ELP-p50 versus free p50 peptide in pregnant rats
[2] = system: human umbilical vein endothelial cells (HUVECs); experiment: HUVEC proliferation, MTS cell proliferation assay; format: cell-based; conditions: 72 h exposure
Method: FIG. 9 is a bar graph showing ELP-VEGF stimulation of HUVEC proliferation. HUVEC cell proliferation was determined after 72 h exposure to ELP, VEGF, or ELP-VEGF at the indicated concentrations using the MTS cell proliferation assay.
Proliferation of human umbilical vein endothelial cells (HUVECs) is stimulated when the cell are exposed to VEGF.

[3] = ELP-VEGF pharmacokinetics and biodistribution in mice after bolus IV; format: in vivo, C57/B16 mice
Method: FIG. 12 includes graphs showing ELP-VEGF pharmacokinetics and biodistribution. FIG. 12A. Fluorescently labeled free VEGF or ELP-VEGF were administered by IV injection to C57/B16 mice. Plasma levels were determined by direct fluorescence quantitation and fit to a two-compartment pharmacokinetic model. FIG. 12B. […] FIG. 12D.
In addition to examining the ELP-VEGF activity in vitro, the pharmacokinetics (PK) and biodistribution of ELP-VEGF in comparison to free VEGF121 is also determined. Both free VEGF121 and ELP-VEGF were fluorescently labeled, and their PK and biodistribution were determined in mice after bolus intravenous administration. […] This is consistent with other reports of approximately a 30 minute half-life for recombinant VEGF in humans. ELP-VEGF cleared more slowly than free VEGF121 (FIG. 12A). […] Four hours after the infusion, the biodistribution was determined by ex vivo whole organ fluorescence imaging.

[4] = Biodistribution of fluorescently labeled ELP / SynB1-ELP in pregnant rats after IV bolus (ex vivo imaging, frozen sections); design: species or system Sprague Dawley rats
Method: FIG. 2 includes a series of images and a graph showing the biodistribution of ELP in pregnant rats. FIG. 2A. The ELP drug carrier was labeled with AlexalFluor633 and infused into normal pregnant Sprague Dawley rats by IV injection (100 mg/kg). 4 h after injection, ex vivo images of placentas, pups, and major organs were collected using an IVIS Spectrum. FIG. 2B. Fluorescence intensity was quantified in all tissues. Error bars represent the standard deviation of 3 rats.
FIG. 3 includes a series of images and a graph illustrating placental distribution of ELP and SynB1-ELP. FIG. 3A. After IV administration of fluorescently-labeled polypeptides or saline control, placentas, pups, and major organs were removed and imaged ex vivo using an IVIS Spectrum. Polypeptide deposition in placentas and pups is shown. FIG. 3B. Fluorescence levels in placentas, pups, and major organs was quantified using Living Image software. Error bars represent the standard deviation of four rats per treatment group. FIG. 3C. Frozen sections of intact placentas and pups were cut, stained with the actin-specific rhodamine-phalloidin to allow visualization of the placenta and pups, and scanned using a florescence slide scanner. FIG. 3D. The same slides were imaged using a florescence microscope to visualize the cellular localization of the polypeptides in the placenta (100× magnification).
Pregnant Sprague Dawley rats on day 14 of gestation were injected with fluorescently labeled ELP (100 mg/kg IV). […] Placentas and pups were dissected from the amniotic sacks and imaged ex vivo using an IVIS Spectrum animal imager to detect and quantitate the ELP levels. […] In contrast, almost no ELP was detectable in the pups. The image intensities of the placentas, pups, and major organs were quantitated using Living Image software, and the results are shown in FIG. 2B. […] These high ELP levels in the placenta are unprecedented with this molecule. By way of comparison, the placenta levels are 2 to 10 fold higher than the tumors levels (Bidwell G L, et al., PloS One, 2013; Bidwell G L, 3rd, Cancer Lett., 2012).
This example also examined whether the addition of a CPP to ELP would affect its penetration across the placenta. SynB1-ELP was labeled with Alexa633 and injected as described above. For comparison, animals were injected with saline control or ELP-Alexa633 at an equivalent dose. Four hours after injection, placental, fetal, and organ levels were determined by ex vivo fluorescence imaging. […] In addition to the ex vivo fluorescence imaging, the fetal-amnio-placental complex was removed, rapidly frozen, and sectioned using a cryomicrotome. Tissue sections were stained with the actin-specific rhodamine-phalloidin to allow visualization of all tissue and imaged directly using a fluorescence slide scanner. […] The intraplacental distribution SynB1-ELP-Alexa633 differed slightly from ELP-Alexa633. […] Both polypeptides could be detected within the cells of the placenta when examined microscopically (FIG. 3D).

[5] = rat, in vivo
[6] = system: trophoblast cells; conditions: rat, in vivo
[7] = rat, in vivo; remark: listed apart in the source
[8] = Plasma levels and biodistribution after chronic infusion by IP minipump GD14-GD19; format: in vivo, rats
Method: FIG. 7 includes images and graphs showing plasma levels and biodistribution of FLPs after Chronic Infusion. FIG. 7A. Rhodamine-labeled ELP or SynB1-ELP was administered chronically by IP minipump from GD14-GD19. Plasma was sampled throughout the experiment, and polypeptide levels were determined relative to standards of the injected protein. Data represent the mean±s.d. of four rats per group. FIG. 7B. Ex vivo fluorescence imaging of eight pups and corresponding placentas from one rat from each group is shown. FIG. 7C. Fluorescence intensities were quantified, corrected for autofluorescence, and fit to standards of the injected proteins. Data represent the mean±s.e. of eight placentas and eight pups per rat and four rats per group. *Statistically significant as determined by a two-way ANOVA with post-hoc Bonferroni multiple comparisons (p<0.05). **Levels were not detectable over autofluorescence.
Whether the fetal exclusion held after five days of continuous infusion of the polypeptides is also examined. ELP or SynB1-ELP was administered continuously from GD14 to GD19 using an IP minipump. […] At the dose used (30 mg/kg/day), the plasma levels were maintained at 33.94 μg/mL for ELP and 69.15 μg/mL for SynB1-ELP. These plasma levels are a reflection of many in vivo kinetic processes, including the rate of transport from the peritoneal fluid to the blood, the rate of extravasation from the blood to the tissues, and the plasma clearance rate. […] These plasma concentration data also provide useful information for the formulation of dosages when ELP is fused with therapeutic agents.
Ex vivo whole organ fluorescence analysis of the placentas is performed, pups, and organs on GD19 following five days of continuous polypeptide infusion. Relative to the acute experiment, the placental levels of the polypeptides were lower, which resulted from the difference in dose (100 mg/kg in the bolus dosing versus 30 mg/kg/day in the chronic infusion). […] The kidneys still accumulated the most polypeptide, followed by the liver and the placenta (FIG. 7C). […]

VQRKRQKLMP [p50 peptide]
initial plasma levels relative to SynB1-ELP-p50 levels ([1]; 100 mg/kg single bolus, pregnant rats): about 100 fold lower | entry into fetal circulation / pups ([1]; four hours after injection): freely entered the fetal circulation and was visible in the pups | total placental levels relative to SynB1-ELP-p50 ([1]; four hours after injection): thirty fold lower

B1: VEGF121: free recombinant vascular endothelial growth factor VEGF121, comparator (protein)
chain: MSKGPGVGVPGAGVPGGGVPGAGVPGGGVPGAGVPGGGVPGAGVPGGGVPGAGVPGGGVPGAGVPGGGVPGAGVPGGGVPGAGVPGVGVPGAGVPGGGVPGAGVPGGGVPGAGVPGGGVPGAGVPGGGVPGAGVPGGGVPGAGVPGGGVPGAGVPGGGVPGAGVPGVGVPGAGVPGGGVPGAGVPGGGVPGAGVPGGGVPGAGVPGGGVPGAGVPGGGVPGAGVPGGGVPGAGVPGGGVPGAGVPGVGVPGAGVPGGGVPGAGVPGGGVPGAGVPGGGVPGAGVPGGGVPGAGVPGGGVPGAGVPGGGVPGAGVPGGGVPGAGVPGVGVPGAGVPGGGVPGAGVPGGGVPGAGVPGGGVPGAGVPGGGVPGAGVPGGGVPGAGVPGGGVPGAGVPGGGVPGAGVPGVGVPGAGVPGGGVPGAGVPGGGVPGAGVPGGGVPGAGVPGGGVPGAGVPGGGVPGAGVPGGGVPGAGVPGGGVPGAGVPGVGVPGAGVPGGGVPGAGVPGGGVPGAGVPGGGVPGAGVPGGGVPGAGVPGGGVPGAGVPGGGVPGAGVPGGGVPGAGVPGVGVPGAGVPGGGVPGAGVPGGGVPGAGVPGGGVPGAGVPGGGVPGAGVPGGGVPGAGVPGGGVPGAGVPGGGVPGAGVPGVGVPGAGVPGGGVPGAGVPGGGVPGAGVPGGGVPGAGVPGGGVPGAGVPGGGVPGAGVPGGGVPGAGVPGGGVPGAGVPGVGVPGAGVPGGGVPGAGVPGGGVPGAGVPGGGVPGAGVPGGGVPGAGVPGGGVPGAGVPGGGVPGAGVPGGGVPGAGVPGWPGSGAPMAEGGGQNHHEVVKFMDVYQRSYCHPIETLVDIFQEYPDEIEYIFKPSCVPLMRCGGCCNDEGLECVPTEESNITMQIMRIKPHQGQHIGEMSFLQHNKCECRPKKDRARQEKCDKPRR
modifications: synthetic ELP-VEGF sequences
notes: free recombinant vascular endothelial growth factor VEGF121, comparator
stimulation of HUVEC proliferation [2]: stimulated HUVEC proliferation with equal potency | terminal plasma half-life ([3]; bolus IV, 2-compartment PK model): approximately 30 minutes | organ accumulation, ex vivo whole organ fluorescence imaging ([3]; four hours after the infusion): accumulated most highly in the kidneys and the liver

B2: ELP: elastin-like polypeptide drug carrier, repeats of VPGXG; unmodified carrier, fluorescently labeled for the tests (protein)
chain: VGVPGAGVPGGGVPGAGVPGGGVPGAGVPGGGVPGAGVPGGGVPGAGVPGGGVPGAGVPGGGVPGAGVPGGGVPGAGVPGVGVPGAGVPGGGVPGAGVPGGGVPGAGVPGGGVPGAGVPGGGVPGAGVPGGGVPGAGVPGGGVPGAGVPGGGVPGAGVPGVGVPGAGVPGGGVPGAGVPGGGVPGAGVPGGGVPGAGVPGGGVPGAGVPGGGVPGAGVPGGGVPGAGVPGGGVPGAGVPGVGVPGAGVPGGGVPGAGVPGGGVPGAGVPGGGVPGAGVPGGGVPGAGVPGGGVPGAGVPGGGVPGAGVPGGGVPGAGVPGVGVPGAGVPGGGVPGAGVPGGGVPGAGVPGGGVPGAGVPGGGVPGAGVPGGGVPGAGVPGGGVPGAGVPGGGVPGAGVPGVGVPGAGVPGGGVPGAGVPGGGVPGAGVPGGGVPGAGVPGGGVPGAGVPGGGVPGAGVPGGGVPGAGVPGGGVPGAGVPGVGVPGAGVPGGGVPGAGVPGGGVPGAGVPGGGVPGAGVPGGGVPGAGVPGGGVPGAGVPGGGVPGAGVPGGGVPGAGVPGVGVPGAGVPGGGVPGAGVPGGGVPGAGVPGGGVPGAGVPGGGVPGAGVPGGGVPGAGVPGGGVPGAGVPGGGVPGAGVPGGGVPGAGVPGGGVPGAGVPGGGVPGAGVPGGGVPGAGVPGGGVPGAGVPGGGVPGAGVPGGGVPGAGVPGGGVPGAGVPGVGVPGAGVPGGGVPGAGVPGGGVPGAGVPGGGVPGAGVPGGGVPGAGVPGGGVPGAGVPGGGVPGAGVPGGGVPGAGVPG
modifications: Alexa633 label; synthetic ELP
notes: elastin-like polypeptide drug carrier, repeats of VPGXG; unmodified carrier, fluorescently labeled for the tests
placental accumulation relative to other organs ([4]; 4 h after 100 mg/kg IV): nearly equivalent to levels in the liver | level in pups, ex vivo fluorescence imaging ([4]; 4 h after 100 mg/kg IV, GD14): barely detectable over autofluorescence in the pups | placental accumulation, ex vivo fluorescence imaging ([4]; 4 h after 100 mg/kg IV, GD14): accumulated strongly in the placenta | placental accumulation, frozen sections, fluorescence slide scanner ([4]; 4 h after IV injection): accumulated at high levels in the placenta relative to autofluorescence controls | polypeptide in pups, frozen sections, fluorescence slide scanner ([4]; 4 h after IV injection): no polypeptide was detectable in the pups | intraplacental distribution ([4]; frozen sections): accumulated at high levels throughout the placenta | half-life ([4]; pregnant rats GD14, 100 mg/kg IV): Four hours after injection, which is about one half-life | level in pups [5]: Neither peptide was detectable in the pups | accumulation in trophoblast cells [6]: accumulated in the cytoplasm of trophoblast cells | polypeptide in interior of chorionic villi (fetal blood) [6]: contained no ELP or SynB1-ELP | total signal in degraded bands <50 kDa [7]: less than 20% | steady state plasma level ([8]; 30 mg/kg/day IP minipump GD14-GD19): 33.94 µg/mL | placental accumulation ([8]; GD19, five days continuous infusion): accumulated at high levels in the placenta | level in pups ([8]; GD19, five days continuous infusion, 30 mg/kg/day): undetectable over autofluorescence in the pups
